Data set [1] in a line: Size exclusion chromatography, hydrodynamic radius. Type of data set: physicochemical. Conditions: for Radiusm (estimated hydrodynamic radius): SEC Superdex 75, 20 μM equimolar. Here is the method:
The purified proteins HVD1, A483, A524 and Talin H1-H4 were used at an equimolar concentration of 20 μM and incubated at 4° C. for one hour in binding buffer. The protein mixtures (200 μL) were injected in a FPLC chromatography system (FPLC Pharmacia) at 16° C. in a Superdex 75 HR 10/30 column (GE Healthcare) previously equilibrated with 10 volumes of binding buffer. The SEC system was calibrated with a Low Molecular Weight Gel Filtration Kit (ref. 17-0442-01, GE Healthcare) and the hydrodynamic radius (Angstroms) of the reference proteins (BSA, OVA, ChyA and RibA) correlated with the elution volume (Ve) using an Euler exponential equation: Hydrodynamic radius (Ang)=210.46 e^−0.189 Ve (mL), with a correlation squared coefficient of R^2=0.9973. Fractions corresponding to elution volume 8-10 mLs were recovered, and analyzed by SDS-PAGE using 15% polyacrylamide gels.

Another data set deals with melanocytes. In words: Matrigel invasion assay. Type of data set: cell-based. Conditions: 24-hour incubation, three independent experiments. Here is the method: Cells were transfected by GFP-A524, GFP-A483 or Mock-transfected (without DNA, as a control).
Cells were further trypsinized, collected, and deposited in a matrigel insert. Following a 24-hour incubation, the matrigel was remove, the membrane was fixed and processed for fluorescence straining of cell nuclei with DAPI. Cells that transmigrated across the matrigel were scored (FIG. 24B).

Data set [2] deals with T1, full-length vinculin (HV) (Homo sapiens, UniProt P18206).
T1 construct: with full-length vinculin (HV) in solid phase assays
T1 sequence (P18206 1-1066 isoform P18206-2): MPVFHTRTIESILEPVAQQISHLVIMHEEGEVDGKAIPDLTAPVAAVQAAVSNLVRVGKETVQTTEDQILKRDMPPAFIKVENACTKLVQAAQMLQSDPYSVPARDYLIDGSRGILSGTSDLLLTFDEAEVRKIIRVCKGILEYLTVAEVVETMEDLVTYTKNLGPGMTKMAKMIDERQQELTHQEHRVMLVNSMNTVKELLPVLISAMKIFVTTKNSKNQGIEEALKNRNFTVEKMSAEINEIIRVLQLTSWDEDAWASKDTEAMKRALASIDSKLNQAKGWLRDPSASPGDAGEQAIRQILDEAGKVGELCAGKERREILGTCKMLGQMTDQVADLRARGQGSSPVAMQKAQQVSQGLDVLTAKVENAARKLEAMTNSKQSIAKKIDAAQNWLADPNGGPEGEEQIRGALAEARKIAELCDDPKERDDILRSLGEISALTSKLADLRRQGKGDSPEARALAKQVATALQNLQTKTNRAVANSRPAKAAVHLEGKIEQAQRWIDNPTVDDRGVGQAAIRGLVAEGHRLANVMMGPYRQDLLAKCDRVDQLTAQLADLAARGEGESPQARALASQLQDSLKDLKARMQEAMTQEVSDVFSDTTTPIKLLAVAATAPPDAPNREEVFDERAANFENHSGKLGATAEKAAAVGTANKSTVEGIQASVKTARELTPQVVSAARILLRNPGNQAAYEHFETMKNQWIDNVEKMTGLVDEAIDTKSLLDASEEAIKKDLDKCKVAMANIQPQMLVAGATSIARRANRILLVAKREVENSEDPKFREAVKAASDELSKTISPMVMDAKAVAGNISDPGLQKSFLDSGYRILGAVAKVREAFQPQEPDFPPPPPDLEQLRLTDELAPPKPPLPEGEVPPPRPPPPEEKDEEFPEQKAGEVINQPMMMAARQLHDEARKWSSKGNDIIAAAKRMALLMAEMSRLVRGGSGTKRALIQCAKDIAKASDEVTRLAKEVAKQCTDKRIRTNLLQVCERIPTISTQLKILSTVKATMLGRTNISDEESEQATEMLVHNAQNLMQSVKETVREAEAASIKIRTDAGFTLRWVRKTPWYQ
Put plainly: ELISA solid phase binding assay. The conditions noted are these: IpaA construct immobilized on the solid phase, HV as soluble ligand. On the procedure:
96-well Maxisorp (Nunc) ELISA plates were coated with 30 nM full-length vinculin, vinculin constructs or IpaA proteins in binding buffer (25 mM Tris pH 7.4, 100 mM NaCl and 1 mM β-Mercaptoethanol). The wells were blocked with PBS-BSA 2%, washed and incubated with half series dilutions of IpaA or vinculin proteins in binding buffer+0.2% BSA at room temperature for one hour. After incubation the plates were washed and incubated with an anti-IpaA (dilution: 1/2000) polyclonal primary antibody (Tran Van Nhieu et al., 1997. EMBO J. 16(10):2717-29) or anti-vinculin (dilution: 1/2000) m11.5 monoclonal primary antibody (ref. V4505, Sigma-Aldrich) in binding buffer+0.2% BSA for one hour at room temperature. Plates were washed and incubated with an HRP-coupled secondary anti-rabbit or anti mouse Ig antibodies (dilution: 1/32000, Jackson ImmunoResearch) for one hour.

In data set [3] the target is T2, talin H1-H4 (Homo sapiens, UniProt Q9Y490). Put plainly: Isothermal titration calorimetry. Type of data set: binding. Conditions: 25° C.; for ΔG free enthalpy / ΔH enthalpy / −TΔS entropic contribution / Kd: ITC; for Kd: read-out: KD (affinity constant). On the procedure:
Vinculin, IpaA proteins and peptides were extensively dialyzed in binding buffer (25 mM Tris pH 7.4, 100 mM NaCl and 1 mM β-Mercaptoethanol). The final concentration of all proteins/peptides was measured using a BCA test (Thermo Scientific). Talin-IpaA binding was measured by microcalorimetry using an ITC200 calorimeter (MicroCal) at 25° C. 200 μL of 20-100 μM of talin H1-H4 protein was added to the cell and binding in the presence of different concentrations of IpaA VBS1, VBS2 or VBS3 peptides was measured. In other experiments, 200 μL of a 16 μM equimolar mix of A483:HVD1 was incubated for one hour at room temperature prior to addition to the cell. Binding to talin H1-H4 (100 μM) was measured. Typically, 20-40 injections of 2 μL of ligand were made with intervals of 320 seconds between each addition, with a reference power of 12 μcal/sec. Data were analyzed using the MicroCal software provided by manufacturer.
(Isothermal titration calorimetry measures the heat released or taken up as one component is titrated into another.)

Data set [4] addresses T2, talin H1-H4. Put plainly: Native-PAGE gel shift. Type of data set: binding. On the procedure: Talin H1-H4 and IpaA peptides/proteins were incubated in binding buffer for 1 hour at 4° C. After incubation, the protein/peptides were mixed in a 2× Native loading buffer (62.5 mM Tris pH 6.8, Glycerol 25%) and separated by Tris-Glycine Native-PAGE electrophoresis. Gels were stained using standard colloidal Coomassie stain.
Talin H1-H4 and IpaA peptides/proteins at different molar ratios were incubated in binding buffer (25 mM Tris pH 7.4, 100 mM NaCl and 1 mM β-Mercaptoethanol) for 1 hour at 4° C. After incubation, the protein/peptides were mixed in a 2× Native loading buffer (62.5 mM Tris pH 6.8, Glycerol 25%) and separated by Tris-Glycine Native-PAGE electrophoresis. The Native PAGE electrophoresis gels were stained using standard colloidal Coomassie stain.
(In general: Mobility shift assays separate free from complexed probe on a gel.)

“And” between values parts separate entries of the source, which are not always exact repeats. Equal values may be shown once. Read-outs that look alike come from different tables or passages of the source.

We go through two molecules from patent US11040083B2, “Polypeptides comprising vinculin binding sites for the treatment of proliferation and/or adhesion related diseases” (PARIS SCIENCES ET LETTRES—QUARTIER LATIN, priority 2015, dated 2021).

T2 sequence (Q9Y490 482-636): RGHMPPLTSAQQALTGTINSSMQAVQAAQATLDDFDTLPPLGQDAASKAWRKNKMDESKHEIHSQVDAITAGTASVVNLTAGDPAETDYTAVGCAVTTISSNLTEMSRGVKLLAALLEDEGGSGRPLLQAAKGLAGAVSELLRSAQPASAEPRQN

B1: A483: amino acids 483 to 633 of SEQ ID NO: 1 (IpaA), containing IpaA VBS1, VBS2 and VBS3 (protein, listed as Shigella flexneri)
chain: GDTYLTRETIFEASKKVTNSLSNLISLIGTKSGTQERELQEKSKDITKSTTEHRINNKLKVTDANIRNYVTETNADTIDKNHAIYEKAKEVSSALSKVLSKIDDTSAELLTDDISDLKNNNDITAENNNIYKAAKDVTTSLSKVLKNINKD
modifications: A483 / IpaA (483-633)
The term Kd denotes the concentration at which binding is half-saturated. B1: in data set [1], the “Radiusg (hydrodynamic radius of a globular protein with the same MW)” value turned out to be 17.99 Ang; the “Radiusm/Radiusg (RH/RG ratio)” value is 1.83 and 1.80; the “Radiusm (estimated hydrodynamic radius)” value is on record as 32.86 Ang. In addition, the “number of cells which migrated across a matrigel” value in the data set on melanocytes was 120 cells. In addition, the “ligand concentration at which the saturation curve plateaus” value in data set [2] stood at 25 nM. Besides, in the data set with talin H1-H4 [3], the ΔG free enthalpy was -10.025 kcal/mol, the ΔH enthalpy is -6.229 kcal/mol, the “−TΔS entropic contribution” value was -3.796 kcal/mol and the dissociation constant (Kd) was found to be 24.9 nM. The dissociation constant Kd with talin H1-H4 [3] (listed as A483 (VBS3)) was 24.9 nM. In the data set with talin H1-H4 [4], the “concentration at which the complex with talin H1-H4 / migration shift could be detected” value was ≤ 5 µM.

B2: A524: IpaA 524-633, containing only IpaA VBS1 and VBS2 (protein, listed as Shigella flexneri)
chain: KSKDITKSTTEHRINNKLKVTDANIRNYVTETNADTIDKNHAIYEKAKEVSSALSKVLSKIDDTSAELLTDDISDLKNNNDITAENNNIYKAAKDVTTSLSKVLKNINKD
modifications: A524 / IpaA (524-633)
notes: IpaA 524-633, containing only IpaA VBS1 and VBS2
B2: in data set [1], the “Radiusg (hydrodynamic radius of a globular protein with the same MW)” value was 15.36 Ang, the “Radiusm/Radiusg (RH/RG ratio)” value is 1.88 and the “Radiusm (estimated hydrodynamic radius)” value was 28.93 Ang. Moreover, the “number of cells which migrated across a matrigel” value in the data set with melanocytes stood at 96 cells. In data set [2], the “ligand concentration at which the saturation curve plateaus” value came to 25 nM. Further, in the data set with talin H1-H4 [3] (ITC non-linear fit), the “N (stoichiometry)” value stood at 1.5. Besides, in the data set with talin H1-H4 [3], the ΔG free enthalpy was -7.448 kcal/mol, the ΔH enthalpy was -3.979 kcal/mol, the “−TΔS entropic contribution” value was -3.469 kcal/mol and the equilibrium dissociation constant (Kd) came out at 2030 nM. Moreover, in the data set with talin H1-H4 [4], the “formation of a complex with talin H1-H4” value is on record as “no migration shift could be detected”.
